From US20120108492A1 (REGENTS OF THE UNIVERSITY OF COLORADO, published 2012)

Molecular target: wild-type recombinant EBV gp350 (residues 1-470 of EBV gp350/220, BCCP, myc, hexa-histidine) (Epstein-Barr virus (B95-8); Escherichia …, UniProt P03200 1-470; P0ABD8 70-156)
Test: ELISA, wild-type gp350 on plate, MBP-CR2 SCR1-2 mutant in solution

Sequence of wild-type recombinant EBV gp350 (residues 1-470 of EBV gp350/220, BCCP, myc, hexa-histidine) (P03200 1-470, tags or fused parts left off): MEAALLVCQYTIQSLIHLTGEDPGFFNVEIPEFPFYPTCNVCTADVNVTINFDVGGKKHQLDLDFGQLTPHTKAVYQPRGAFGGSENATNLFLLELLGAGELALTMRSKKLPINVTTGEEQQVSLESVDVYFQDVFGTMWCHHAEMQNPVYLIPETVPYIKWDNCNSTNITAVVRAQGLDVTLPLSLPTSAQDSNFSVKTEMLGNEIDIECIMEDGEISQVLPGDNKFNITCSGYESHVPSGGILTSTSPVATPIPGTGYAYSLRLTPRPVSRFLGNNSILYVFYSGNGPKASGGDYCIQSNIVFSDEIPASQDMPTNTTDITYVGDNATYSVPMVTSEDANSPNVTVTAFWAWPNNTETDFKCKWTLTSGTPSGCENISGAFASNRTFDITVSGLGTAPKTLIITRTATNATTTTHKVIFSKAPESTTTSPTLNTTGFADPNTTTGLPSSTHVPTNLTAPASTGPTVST

B1: MBP-CR2 SCR1-2 K67A (receptor)
chain: ISCGSPPPILNGRISYYSTPIAVGTVIRYSCSGTFRLIGEKSLLCITKDKVDGTWDKPAPKCEYFNAYSSCPEPIVPGGYKIRGSTPYRHGDSVTFACKTNFSMNGNKSVWCQANNMWGPTRLPTCVSVFPLE
notes: not shown: MBP tag encoded by pMAL-p2x and the vector linker between MBP and CR2
decrease in EBV gp350 binding relative to wild-type: ~20%
